# Bridge positions count the residues as written; N and C are the ends. Square brackets hold non-standard residues; d marks the D form. Ends that are not written are not given here. * marks the point of attachment. Biotin = O=C1N[C@H]2[C@H](CS[C@H]2CCCCC(=O)*)N1; S5 = C=CCCC[C@](C)(N)C(=O)O
# Tests used:
# MCL-1 SAHBD = target: T1, MCL-1 SAHBD
# T1 chain: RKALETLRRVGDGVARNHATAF
# [1] = target: MCL-1 SAHBs that do not bind VLCAD
# [2] = target: recombinant VLCAD (mature human VLCAD lacking its cleavable leader sequence, aa 40-655, 10x His-tagged) (human) (UniProt P49748); test: biolayer interferometry; Biotin-PEG SAHB on streptavidin sensors, VLCAD in solution at the plotted concentrations
# MCL-1ΔNΔC = MCL-1ΔNΔC (UniProt Q07820); test: biolayer interferometry; Biotin-PEG SAHB on streptavidin sensors, MCL-1ΔNΔC in solution at the plotted concentrations
# SCAD = target: T2, SCAD (mouse, UniProt Q07417 25-412); test: streptavidin pull-down with biotinylated SAHB from cellular lysate; western blot for SCAD
# T2 sequence (looked up): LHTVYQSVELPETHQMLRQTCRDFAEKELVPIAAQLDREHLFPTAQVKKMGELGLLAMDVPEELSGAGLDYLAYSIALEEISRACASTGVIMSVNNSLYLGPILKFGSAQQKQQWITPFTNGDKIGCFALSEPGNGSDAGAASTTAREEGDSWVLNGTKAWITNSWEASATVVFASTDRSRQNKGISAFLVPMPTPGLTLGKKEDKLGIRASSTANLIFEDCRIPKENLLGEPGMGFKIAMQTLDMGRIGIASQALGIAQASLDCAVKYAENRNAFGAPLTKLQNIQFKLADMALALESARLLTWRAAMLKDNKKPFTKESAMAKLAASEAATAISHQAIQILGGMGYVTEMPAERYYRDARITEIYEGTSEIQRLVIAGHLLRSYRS
# Text: (§1) To validate the MS result, the pulldowns were repeated and eluates run on a gel for anti-VLCAD Western blot analysis. VLCAD was detected in the MCL-1 SAHBD pulldown eluate, confirming the MS results. […] All peptides faithfully recapitulated native BH3-binding propensities for endogenous MCL-1 protein (FIG. 8). The eluates were then probed for the other members of the acyl-CoA dehydrogenase family that manifest shorter fatty acid substrate specificities. MCL-1 SAHBD was able to pull down VLCAD, but not MCAD or SCAD (FIG. 9). Because the traditional MCL-1 staple location differs from that of the BIM, BID, and BAD SAHBs, it was important to confirm that the observed VLCAD binding specificity was due to BH3 sequence selectivity, not staple position. A BIM SAHB with the traditional MCL-1 staple (BIM SAHBF), and a MCL-1 stapled peptide with the traditional BIM staple (MCL-1 SAHBA), were generated. […]
# (§2) Wild-type MEFs were trypsinized, washed once with cold PBS, and lysed on ice with NP-40 lysis buffer (50 mM Tris, pH 7.4, 150 mM NaCl, 0.5% (v/v) NP-40, complete protease inhibitor pellet (Roche)) using 1 ml of lysis buffer for every 10 million cells lysed. Cellular debris was pelleted at 14,000 g for 10 min at 4° C., and the supernatant was quantified using the BCA Protein Assay Kit (Thermo Fisher Scientific). […]
# MCAD = target: T3, MCAD (mouse, UniProt P45952 26-421); test: streptavidin pull-down with biotinylated SAHB from cellular lysate; western blot for MCAD
# T3 sequence (looked up): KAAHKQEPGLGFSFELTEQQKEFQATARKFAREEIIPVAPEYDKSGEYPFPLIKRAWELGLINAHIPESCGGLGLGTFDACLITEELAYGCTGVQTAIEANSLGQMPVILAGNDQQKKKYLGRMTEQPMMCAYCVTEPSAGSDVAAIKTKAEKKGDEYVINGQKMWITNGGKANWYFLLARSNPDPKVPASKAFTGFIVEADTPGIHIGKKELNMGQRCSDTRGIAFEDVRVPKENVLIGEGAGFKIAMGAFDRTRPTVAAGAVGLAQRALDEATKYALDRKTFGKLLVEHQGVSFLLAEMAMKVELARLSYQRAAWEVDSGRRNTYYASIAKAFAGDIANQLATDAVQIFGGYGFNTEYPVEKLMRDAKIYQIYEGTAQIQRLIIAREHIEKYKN
# Text: as §1, §2
# [3] = target: T4, native VLCAD (Very Long Chain Acyl CoA Dehydrogenase) from mouse embryonic fibroblast lysates (mouse, UniProt P50544 42-656); test: streptavidin pull-down with biotinylated SAHB from MEF lysate; western blot for VLCAD, densitometry ratio mutant/WT
# T4 construct: also called endogenous VLCAD of mouse liver mitochondria
# T4 sequence (looked up): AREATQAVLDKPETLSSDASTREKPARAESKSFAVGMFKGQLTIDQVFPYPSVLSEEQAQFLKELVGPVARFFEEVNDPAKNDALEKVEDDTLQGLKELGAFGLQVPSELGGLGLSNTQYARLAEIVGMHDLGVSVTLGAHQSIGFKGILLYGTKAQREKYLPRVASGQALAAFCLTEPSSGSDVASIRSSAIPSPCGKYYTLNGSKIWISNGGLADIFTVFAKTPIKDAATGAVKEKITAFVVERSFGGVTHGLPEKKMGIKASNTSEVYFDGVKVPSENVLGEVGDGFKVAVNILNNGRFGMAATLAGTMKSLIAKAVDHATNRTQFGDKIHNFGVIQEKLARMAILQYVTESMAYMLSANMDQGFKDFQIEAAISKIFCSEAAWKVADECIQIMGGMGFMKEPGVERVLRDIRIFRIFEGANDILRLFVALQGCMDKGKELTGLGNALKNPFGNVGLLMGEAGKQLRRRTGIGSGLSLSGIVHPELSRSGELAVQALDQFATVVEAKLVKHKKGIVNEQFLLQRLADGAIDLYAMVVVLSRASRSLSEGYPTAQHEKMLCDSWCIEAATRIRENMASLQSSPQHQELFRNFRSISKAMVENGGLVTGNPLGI
# Description: Wild-type MEFs were trypsinized, washed once with cold PBS, and lysed on ice with NP-40 lysis buffer (50 mM Tris, pH 7.4, 150 mM NaCl, 0.5% (v/v) NP-40, complete protease inhibitor pellet (Roche)) using 1 ml of lysis buffer for every 10 million cells lysed. Cellular debris was pelleted at 14,000 g for 10 min at 4° C., and the supernatant was quantified using the BCA Protein Assay Kit (Thermo Fisher Scientific). 2 mg of lysate per pulldown were then exposed to 50 μL of pre-equilibrated High Capacity Streptavidin Agarose beads (Thermo Fisher Scientific). […] The beads were then pelleted and washed with NP-40 lysis buffer three times before eluting the protein sample from the beads by heating at 70° C. for 10 min in SDS loading buffer. Samples were then subjected to electrophoresis and either Western analysis or Coomassie stain (SimplyBlue Safe Stain, Thermo Fisher Scientific). The antibodies used for Western analysis were the following: MCL-1 (Rockland 600-401-394; 1:1000 in 3% BSA), VLCAD (Thermo Fisher Scientific PA5-29959; 1:1000 in 1% milk+0.1% Tween-20), MCAD (Thermo Fisher Scientific PA5-27201; 1:1000 in 3% BSA), and SCAD (Abcam ab154823; 1:1000 in 3% BSA). Coomassie stained gels were then processed for proteomics analysis (see below). Biotinylated SAHB pulldowns of recombinant protein were performed as above incubating 5 nmol of SAHB with 10 pmol of rVLCAD in 500 μL total volume. […]
# [4] = target: recombinant VLCAD (mature human VLCAD lacking its cleavable leader sequence, aa 40-655, 10x His-tagged) (human) (UniProt P49748); test: ITC, 200 µM Btn-peptide injected into 15 µM recombinant VLCAD, 25 °C, single binding site model
# [5] = target: T4, native VLCAD (Very Long Chain Acyl CoA …); test: DSS chemical crosslinking of intact mouse liver mitochondria, Western (FIG. 32)
# Text: To investigate the native interaction between VLCAD and MCL-1, intact mitochondria were isolated from mouse livers and exposed to the chemical crosslinker DSS. Vehicle or DSS-treated mitochondria were then lysed and the resultant lysate run on a reducing/denaturing gel.
# MCL-1ΔNΔC, sequence (Q07820 172-320, stated change not applied): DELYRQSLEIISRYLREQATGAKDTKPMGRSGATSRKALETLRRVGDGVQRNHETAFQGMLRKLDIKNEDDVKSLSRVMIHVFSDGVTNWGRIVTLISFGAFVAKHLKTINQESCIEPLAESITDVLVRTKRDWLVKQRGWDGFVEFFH
binder,measurement,setting,value
"recombinant VLCAD (mature human VLCAD lacking its cleavable leader sequence, aa 40-655, 10x His-tagged) (protein) YAGGAAQLALDKSDSHPSDALTRKKPAKAESKSFAVGMFKGQLTTDQVFPYPSVLNEEQTQFLKELVEPVSRFFEEVNDPAKNDALEMVEETTWQGLKELGAFGLQVPSELGGVGLCNTQYARLVEIVGMHDLGVGITLGAHQSIGFKGILLFGTKAQKEKYLPKLASGETVAAFCLTEPSSGSDAASIRTSAVPSPCGKYYTLNGSKLWISNGGLADIFTVFAKTPVTDPATGAVKEKITAFVVERGFGGITHGPPEKKMGIKASNTAEVFFDGVRVPSENVLGEVGSGFKVAMHILNNGRFGMAAALAGTMRGIIAKAVDHATNRTQFGEKIHNFGLIQEKLARMVMLQYVTESMAYMVSANMDQGATDFQIEAAISKIFGSEAAWKVTDECIQIMGGMGFMKEPGVERVLRDLRIFRIFEGTNDILRLFVALQGCMDKGKELSGLGSALKNPFGNAGLLLGEAGKQLRRRAGLGSGLSLSGLVHPELSRSGELAVRALEQFATVVEAKLIKHKKGIVNEQFLLQRLADGAIDLYAMVVVLSRASRSLSEGHPTAQHEKMLCDTWCIEAAARIREGMAALQSDPWQQELYRNFKSISKALVERGGVVTSNPLGF",VLCAD enzymatic activity (reduction of ferrocenium hexafluorophosphate with palmitoyl-CoA as substrate),MCL-1 SAHBD,Pre-incubation of VLCAD with MCL-1 SAHBD caused a decrease in enzymatic activity
same,VLCAD enzymatic activity (reduction of ferrocenium hexafluorophosphate with palmitoyl-CoA as substrate),[1],an effect not observed when MCL-1 SAHBs that do not bind VLCAD were added
"RKALETLRRVGDGV[S5]RNH[S5]TAF (staple 15-19; also: derivatised forms: N-terminal biotin, Btn-PEG, fluorinated analog, One entry for all derivatised forms (biotin, Btn-PEG, fluorinated, underivatised); the form used is named under assay in each row; also called Btn-MCL-1 SAHBD; Biotin-PEG-MCL-1 SAHBD) [MCL-1 SAHBD]",EC50 (read off the curve),[2],3 µM
same,EC50 (read off the curve),MCL-1ΔNΔC,0.2 µM
same,binding result,SCAD,no binding
same,binding result,MCAD,no binding
"RKALETLRRVGDGVARNAATAF (staple (positions not given here); not fully specified (residues 15, 19, bridges); also: biotinylated, site not given here, MCL-1 numbering) [MCL-1 SAHBD H224A]",binding result,[3],no binding
"Biotin-RKALETLRRVGDGAARNH[S5]TAF (staple (positions not given here); not fully specified (residue 15, bridges); also: second staple residue not placed) [MCL-1 SAHBD V220A]",Kd,[4],1700 nM
"endogenous MCL-1 protein from mouse embryonic fibroblasts (other, UniProt P97287 1-331, looked up, also called native MCL-1; endogenous/native MCL-1) MFGLRRNAVIGLNLYCGGASLGAGGGSPAGARLVAEEAKARREGGGEAALLPGARVVARPPPVGAEDPDVTASAERRLHKSPGLLAVPPEEMAASAAAAIVSPEEELDGCEPEAIGKRPAVLPLLERVSEAAKSSGADGSLPSTPPPPEEEEDDLYRQSLEIISRYLREQATGSKDSKPLGEAGAAGRRALETLRRVGDGVQRNHETAFQGMLRKLDIKNEGDVKSFSRVMVHVFKDGVTNWGRIVTLISFGAFVAKHLKSVNQESFIEPLAETITDVLVRTKRDWLVKQRGWDGFVEFFHVQDLEGGIRNVLLAFAGVAGVGAGLAYLIR",binding result,[5],binds
